In US20200239586A1:

T1: Histidine tagged hFn14 extracellular domain, bacterially expressed (human) (UniProt Q9NP84)
T1 sequence: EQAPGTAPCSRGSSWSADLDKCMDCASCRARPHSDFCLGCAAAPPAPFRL

T2: human Fn14 (human) (UniProt Q9NP84)
T2 sequence: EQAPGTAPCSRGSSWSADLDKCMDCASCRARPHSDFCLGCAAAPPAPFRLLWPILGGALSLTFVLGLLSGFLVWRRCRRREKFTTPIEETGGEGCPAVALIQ

T3: synthetic peptide hFn14 sub-domain 3 (human)
T3 sequence (peptide, biotin on the added C-terminal lysine): ASCRARPHSDFCLGK


What was measured:
[1] = target: T1, Histidine tagged hFn14 extracellular domain, bacterially expressed (human); test: SPR (ProteOn XPR36), mAb coupled to chip, His-tagged hFn14 analyte, Langmuir 1:1 fit
human Fn14 (human) = target: T2, human Fn14 (human); test: cell-based or functional assay
[2] = target: synthetic peptide hFn14 sub-domain 2 (human); test: ELISA on biotinylated sub-domain 2 peptide, mAb at 5 ng/ml
[3] = target: T3, synthetic peptide hFn14 sub-domain 3 (human); test: ELISA on biotinylated sub-domain 3 peptide, mAb at 0.2 ug/ml

Chain of synthetic peptide hFn14 sub-domain 2 (human) (peptide, as listed by the source): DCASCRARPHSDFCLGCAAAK

| Kd [1] [nM] | koff [1] [s⁻¹] | kon [1] [M⁻¹ s⁻¹] | % Agonist, IL-8 secretion by A375 cells (human Fn14 (human)) [%] | % Antagonist, IL-8 secretion by A375 cells (human Fn14 (human)) [%] | % decrease in binding compared to CRCBT-06-001 and CRCBT-06-002 [2] [%] | % decrease in binding compared with CRCBT-06-005 [3] [%] | Binder |
| --- | --- | --- | --- | --- | --- | --- | --- |
| 1.68 | 0.000864 | 510000 | 8 | 97 | – | – | ITEM-4 (antibody, from another filing, V domains shown) VH: QVQLQQSGPELVKPGASVKMSCKASGYTFTDFIIAWVKQRTGQGLEWIGEIYPGTGRTYYSEKFRGKATLTADKSSNTAYMQLSSLTSVDSAVYFCARRTIYYDYDGDYWGQGTTLTVSS VL: DIVMTQAAFSNPVTLGTSASISCRSSKSLLHSNGITYLYWYLQKPGQSPQLLIYQMSNLASGVPDRFSSSGSGTDFTLRISRVEAEDVGVYYCAHNLELPWTFGGGTKLELK |
| 4.1 | 0.00147 | 358000 | 21 | 9 | 68 | 76 | ITEM-1 (antibody, from another filing, V domains shown) VH: EVKLEESGGGLVQPGGSMKLSCVASGFSFSNYWMNWVRQSPEKGLEWVAEIRLKSNNYATHYAESVKGRFTISRHDSKSSVYLQMNNLRAEDTGIYYCTRAYADYFDYWGQGTTLTVSS VL: DIVLTQSPASLVVSLGQRATISCRASQSVSTSTYSYMHWYQQKPGQPPKILIKYASNLESGVPARFSGSGSGTDFTLNIHPVEEEDTATYYCQHSWEIPYTFGGGTKLEIKR |
